According to US12291562B2, “Reagents and assays using modified integrin domains” (Rush University Medical Center, priority 2019, dated 2025):

B1: Clone 11: scFv phage clone, VH-linker-VK, SEQ ID NO: 65 (protein)
scFv: EVQLVESGGGVVQPGRSLRLSCAATGFTFSNYGIHWVRQAPGKGLEWVAVTSYDGSNKYYADSVKGRFTISRDNSKNTLYLQMNSLRVEDTAVYYCAKDRGYYTYVFDYWGRGTLVTVSSGEGKSSGSGSESKASDVVMTQTPLSLPVTPGEPAAISCRSSQSLLHSNGYNYLDWYLQKPGQSPQLLIYLGSNRASGVPDRFSGSGSGTDFTLKISRVEAEDVGVYYCMQAVQTVD
modifications: Clone 11
B2: Clone 5: scFv phage clone, VL-Linker-VH, SEQ ID NO: 63 (protein)
scFv: SSELTQDPAVSVALGQTVRITCQGDSLRSYYASWYQQKPGQAPVLVIYGKNNRPSGIPDRFSGSTSGNFASLTITGAQAEDGADYYCHSRDSSGNHLVFGGGTKLTVLGEGKSSGSGSESKASEVQLVQSGAEVKKPGESLKISCKGSGYSFTSYWIGWVRQMPGKGLEWMGIIYPGDSDTRYSPSFQGQVTISADKSISTAYLQWSSLKASDTAMYYCARRARGAFDIWGQGTLVTVSS
modifications: Clone 5
B3: Clone 6: scFv phage clone, VL-linker-VH, SEQ ID NO: 64 (protein)
scFv: QSVLTQPPSASGTPGQRVTISCSGSSSNIGSNYVSWYQQLPGTAPKLLIYDNNKRPSGIPDRFSGSKSGTSATLGITGLQTGDEADYYCGTWDSSLSALYVFGAGTKLTVLGEGKSSGSGSESKASQVQLQESGPGLVKPSETLSLTCSVSGGSTSSYYWSWIRQPPGKGLEWIGYISNSGSTNYNPSLKSRVTMSIDTSNNQFSLKLSSVTAADTAVYYCASHLGATWRWGQGTLVTVSS
modifications: Clone 6
B4: Clone 14: scFv phage clone, VK-Linker-VH, SEQ ID NO: 67 (protein)
scFv: DVVMTQSPLSLPATLGQPASISCRSSQSLVYTDGNTYLNWFQQRPGQSPRRLIYKVSNRDSGVPDRFSGSGSGTHFTLKISRVEAEDVGVYYCMQGTHWPPTFGQGTKVEIKEGKSSGSGSESKASEVQLVQSGAEVKKPGASVKVSCKASGGTFSSYAISWVRQAPGQGLEWMGGIIPIFGTANYAQKFQGRVTITADESTSTAYMELSSLRSEDTAVYYCASSGVDYWGQGTLVTVSS
modifications: Clone 14
B5: Clone 13: phage clone, VH only, SEQ ID NO: 66 (antibody, V domains shown)
VH: EVQLLESGGGLVQPGGSLRLSCAASGFTFSSDLMSWVRQAPGKGLEWVSAISGSGGSTYYADSVKGRFTISRDNSKNTLYLQMNSLRAEDTAVYYCAKNEVIFDYWGQGTLVTVSSASTKGLSMFDYWGQGTKVEIK
modifications: Clone 13
B6: Clone 8: clone from naïve human scFv phage display library enriched on BZ348014 (Table 5); not the VHH clone 8 (protein)
scFv: DVQLVESGGGLVQPGGSLRLSCTASGFTFSNYAMNWVRQAPGKGLEWVSVISSSGSRRNYADSVKGRFTISRDNAKSTLYLQMNSLKPEDTAVYYCAKVRDAGYYRWNLNDLDYRGQGTQVTVSS
modifications: Clone 8

Experiments:
[1] = Phage ELISA on blocked well; format: binding; settings: Table 5, scFv phage diluted 1:5
Experimental: (§1) After 2 rounds of enrichment against the primary target, positive binders were identified by phage ELISA and analyzed by restriction mapping & sequencing for identification of unique clones. Small scale phage growths were diluted 1:5 in TBS+casein. Nunc Maxi-Sorp strip wells were coated at ˜5 μg/ml of each test protein overnight at 4° C. and blocked with TBS+casein. The diluted phage were applied and allowed to bind for 1 hour with shaking. The wells were washed 4 times with TBS+0.05% Tween20 and twice with TBS. Bound phage were detected by incubation for 1 hour with anti-M13-HRP and after washing as above, developed with TMB. Absorbance at 450 nm was read after acidification of the wells.

[2] = target: T1, BZ348014 (CD11b A-domain CD11bA-D242A/F275S/F302G) (Homo sapiens, UniProt P11215, D258A/F291S/F318G); experiment: Phage ELISA on BZ348014; format: binding; settings: Table 5; scFv phage diluted 1:5; after 2 rounds of enrichment
T1 construct: MGS-8XHis-SG (N); TEV site (ENLYFQ) followed by GS linker (N); made in house; host or cells: E. coli BL21DE3 (pET-11d)
From the text: A naïve human scFv phage display library and VHH phage display library were screened against several integrin targets of interest. The screen involved phage ELISA followed by sequencing.
Example experiment: A diverse naïve human scFv phage display library (Neoclone, LLC, Madison, WI) was enriched on BZ348014.
as §1

[3] = test system: CD11b A-domain polypeptides; experiment: Conformation selectivity in counterscreen and dilution series ELISA; format: binding, human; settings: conclusion from ELISA data
Experimental: as §1
High binding clones were included in a counterscreen ELISA against other CD11b A-domain polypetides which produced the following data:
To confirm binding, a dilution series experiment was carried out. Select clones were subjected to a dilution series which generated the following data: […]

BZ348014 antigen = target: T2, BZ348014 antigen (Homo sapiens, UniProt P11215, D258A/F291S/F318G); experiment: VHH phage display library screening; format: binding
T2 construct: MGS-8XHis-SG (N); TEV site (ENLYFQ) followed by GS linker (N); made in house; host or cells: E. coli BL21DE3 (pET-11d)
Experimental: A panning and enrichment of the BZ348014 antigen against a VHH phage display library (Neoclone, LLC, Madison, WI) was also conducted in an identical manner to the human scFv phage display library screen. One unique binder was identified, clone 8.

T1 sequence (P11215 148-337 D258A/F291S/F318G): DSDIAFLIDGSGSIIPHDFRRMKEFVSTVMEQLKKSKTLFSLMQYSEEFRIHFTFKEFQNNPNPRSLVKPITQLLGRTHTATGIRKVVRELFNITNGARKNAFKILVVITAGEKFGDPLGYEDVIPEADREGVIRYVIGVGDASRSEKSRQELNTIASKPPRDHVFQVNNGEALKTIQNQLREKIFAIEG
T2 sequence (P11215 148-337 D258A/F291S/F318G): as above

| Molecule | ELISA absorbance at 450 nM, Blocked well [1] | ELISA absorbance at 450 nM, BZ348014 [2] | Selectivity of binding to CD11b A-domain polypeptides mutationally stabilized in active conformation over the other conformations [3] | Binder identified by panning and enrichment against BZ348014 antigen (BZ348014 antigen) |
| --- | --- | --- | --- | --- |
| B1 | 0.043 | 0.628 | – | – |
| B2 | 0.045 | – | limited or no selectivity | – |
| B3 | 0.041 | – | bound selectively | – |
| B4 | 0.044 | – | bound selectively | – |
| B5 | 0.043 | – | bound selectively | – |
| B6 | 0.047 | 0.060 | – | unique binder |
